Experiments:
[1] = molecular target: T1, VtlR (rVtlR) (Agrobacterium tumefaciens C58) (UniProt A9CI74); experiment: competition
T1 sequence: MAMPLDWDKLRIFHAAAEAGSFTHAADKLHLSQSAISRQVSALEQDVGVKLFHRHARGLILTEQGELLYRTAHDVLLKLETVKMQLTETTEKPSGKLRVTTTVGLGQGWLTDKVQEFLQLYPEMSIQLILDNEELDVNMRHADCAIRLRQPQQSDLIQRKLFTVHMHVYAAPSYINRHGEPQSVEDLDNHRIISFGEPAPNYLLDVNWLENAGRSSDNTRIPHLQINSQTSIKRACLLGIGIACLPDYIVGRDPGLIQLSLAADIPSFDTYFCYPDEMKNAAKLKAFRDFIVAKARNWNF

[2] = molecular target: T1, VtlR (rVtlR) (Agrobacterium tumefaciens C58); experiment: EMSA

GCCGTGGGCAAGCGTGACAGCTAACTAAAATATGGGAGTGGCAAGAATGCAAAACAAGGTTGCATCATGCGATATTTCGCCAATTTGGAGAAAATTCTTGCGGGTAAAAAAAGAGGGCCGCCG (double strand) [PabcR2]
binding [1]: no binding

GAACTGGGAGGAAAAGCCACCGTGTGCATCAACTGAGAGCTATTTGGTGTTTTTTTGTGCACGAAACAACTCTTTTTTGTGCAGGTCAGGCATGCGTCGCACGCAGCCCTCGATATTTCCGGTATATTTTATGTGCAAAGCTGAAGAAGGGCGCCTGCGCGCCCCTCTTGCTTCTACCTTTACAAGGCTTTGAATTTTAAAGATTATCTTTCGACGTCGATTATTTTTACGTCAGAAGTTCCAGTTCCGC (double strand) [PabcR1]
binding [2]: binds
